Experimental data from the domain aggregation screens of Martell et al. (2025).

assay: soluble fraction after stress (log2 fold change); higher = more stays soluble; pooled small domains, quantitative proteomics; settings: stress: 75 degC
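Further: 20 min heating vs room temperature control held 20 min.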

Sequence	soluble fraction (log2)
HMQQLAEQIPTDRPYISIAEAVVLFGISRDTIYRQIRKGNIPAVNLGERLTRISRIHIEAMFPKV	-0.305
HMQQNYREMHKVKKGETLFGIARRYEITVDQLIKANPDMNAVGYELKKGDYIFIPYPDGQKP	-0.427
HMQRAEQLPAELAAVFRAETEAWGFFERQPPGYQRVAIHWVASAKQEATRLRRLAKLIEESAAGRR	-1.61
HMQRDTIAISAIPTAIKTYLSSTYPTDTLVHAFVNKDQSIVVISKNIDFYATSFSTANAFIKRIQLPA	-1.41
HMQRFIHITVSDVHQATRLLEEEMQLTNYSVAENNAIKIFEFTYEPQEINHLFGKNGIEVSSLFIGS	-0.0559
HMQRNLILKLDTDQPEIYKKLESIFVEINGLLVPFFIEKIIWSKQDSLNILFKNSSEALVEQLIGKNVFLP	0.2
HMQRSVNYSELHEIKERVFDALYSSPMSMPDLLAWLKGDEEHTISVIRLMQDNGDIEMGEDGRLAVV	-0.383
HMQSISLEEAKSAALDDAQLGIDEVEFLKTERNTDGDTSYYDIQFLVNGTIYKYQINTETGAILHVDYEA	0.0632
HMQSITAGDKVRVKNYTVSGGKKRGKVYGGAGTFVVYYEKYDVISVTGDRVVIGIGKAVTAAVHIDDLEK	-2.07
HMQSKSEINELPKSIHMAFSPKNFELFIDNLKINEIDFSNWKGELNTIQERVDGQRQIWIQDPQGYWIEIN	-0.0964
HMQSLIVPVPKPEDDPVYKDGIKQDPVEVVSIWLGRDYLNMILNLKVSTGKGHTFGIVEDVS	-0.157
HMQSNDTAEIEAVVKEIMAANERVVNDYRSGNTKVVSFFVGQVMKATKGKANPKVVNEVLAKLLK	-0.823
HMQSVPELDQQFKIAIENNDFIKLAQLKEQGYHPSKEVMQSLSNTTPNNTIIAVQKIFGLKA	0.546
HMQSVSANSVQKQLADIIDGEDKTHPLSDRELTEKLVAQGVQISRRTVAKYREAMGIPGASGRKQ	-0.0543
HMQTAAANPSPESILQAREAAGLSQSEAGALIYSGLRSWQHWEWGTRRMHPGLFELFLKKTGQI	-1.83
HMQTKMVYSDLVNSIKSEQVSSMLVSGNTVTVTLTNGDKAKVKIPSLDTLQADVGKEMNDQMDKGTLKQE	0.18
HMQTKNYVYFNNTENWSTVNVYVWSSKDSTYMSWPGKAMESIGNNTYRFELPNGAEYAIFNNGSAQTVD	-0.335
HMQTKSDMVYHRVREDIVNGVFAPGERLLISAVAKQYGVSEIPVREAFRVLSQEGFLKTRPNSGFVVS	-0.44
HMQTMTAGERREAILRELEQAQGPVSASALAKRFHVSRQAVVGDVAMLRALNSPIAATPRGYVLTR	-0.322
HMQTMTDDQVMQYVISQQEKGATQQDIVSKLLQKGVTVDQMRRIRKKYEAQQSQPGALDLTGSS	0.654
HMQTNEAIINQAVQAAEAQNITTRSQAVDALKANGMTEAQARQLAVQRGISYDQLINELFPME	0.0149
HMQTPVTVGDTMPNLIGTPKRLLLELLNRTDITVKLTGDGYVTAQSPAAGTPIAKGMIIELSL	-2.17
HMQTQVEVLVKYVLEDGTVYKEDKVSADIGAILDSGDLPMLSNDMKFIDDFLFYEVKESDNVIERKVAKLV	-0.782
HMQTQYIVDTKTTLLVRTGPGKSNSQFGRLKNGETINVYAIKNGWAEISYNGKTGYVSEQYIKLA	-3.59
HMQTTDTGAIETIVDELMAANPDKVEAYRGGKTGLQGFFMGQVMKQLGGQGNPKVISAIVTEKLE	0.603
HMQTTPAGHELLIRYFANGNIRERGMMKDGKRNGIWIFYDESGMEIRKTKYKMGKIISDYDLN	-2.6

Sequence	soluble fraction (log2)
HMQTTQQLIRNLRLKQAATLLADKRHSITEVATLTGFTHPTYFATAFREMFGVSPSEYMEQHI	-1.49
HMQTYNQLKRGMTEWIQAGQKQKAYELFAGVAGQLSLSSAAGKKQYNELVTILNRAGFGIPLE	-1.12
HMQVEMVLSQEAHEWLLQRGFIPEYGAREMDRVIAAHLKPLLMREILFGTLKAGGKVRVQVENGALKLQP	-3.08
HMQVLSESDVEDIKAISGGDKAYDNLMEWAGSKLSKQDAKDYDDVLATGNKTAITFAVKALMAQYENAN	-0.198
HMQVPFGFQRNPSTGTLEEKAEEQLIINQVLSLKNSGIGVSEISKRLGELSVSRIYRIINTAKKNAS	-0.812
HMQVSDANQLTDVVKSIIKQYPVEVEKYKSGKKALFGFFMGKVMENLKGKSNPKILKNVLTEILD	0.22
HMQVSDTNTLEQFAKEVIEANPKAVEDYHQNPLAIGFLVGQLMKVSKGSANPQTGKEILEKLL	-0.112
HMQVSDVTTIRALVEEVLSSSPQQLAQYRAGKLSLKGYFVGQVMKKGKGQLNAAAVNNLLDEIL	-2.41
HMQVSEQVQRLLDALENDTLTTKELMDRLGLKHRPTFRKNYLLPSMKLGLVEMTIPDKPNSSRQKYRRRQ	-0.566
HMQVTEVDYGTFMKMVEEKNVGEVEVGNSMIVFTDKDGKAIYKTGAMNDPNLTERLYNAGASFTKE	0.144
HMQVTGLTAENAHRVTMIREKGTDHPPVPFHFRKEHHGTGNYVHLYGNPEDRNELHSRDFKDWEAVAFK	0.211
HMQVVDWSQVDKEDYLLATKRRAVSTGELKFLLLNNLTYDLTQTRFFKGMDASYYYEGYNLYQTGE	0.0696
HMQWGKVRRLPSGRYQASYVHKGTRYTAPETYTVQGRAHGWIESERRLIVTDTWTPPDTRPS	-1.24
HMQWLDSIRSRLRVGQTISYFEPRENASSSGLIIELRRKRVLVLEIATQKRWLIEYAAINVDG	-0.279
HMQWQPSEEAMQRLEQHGIPRAFSFSQLDAFVLQGQEQGSNRNDWNTRFFRFIKNQWVYAQN	-2.59
HMQYDSYTVEEPAKLLDWLLAHLRQSRTKIKATLQGHGIKVNGKTVTQFDYPLEPGMKIRVSLTK	-1.24
HMQYKTRVINLSILEVGMVLGRDLINKDGKIIVKKDVAISDFLKDHLIGLSKIKEIEPQIYIKV	-1.15
HMQYSIQVNKLLKAMREDVWYTANEILDLLKLKSKETLRKNYLDPAINNKLIILELPDKPTSRNQRYKI	-2.03
HMQYTQKTMYINDSYVNLRKSASTSSDIIMVVELNTKLTVIGEDGDWYKVKTSSGNAYVLKTLLSNEKKET	-3.22
HMQYTTDEVRERVLSVLNQLLLRWIVREGKDMFNIQANAVEISEGIKGELNTELEKIGLAATGFQIDSV	-0.393
HMRADRLISMLMLLQARGKITAEELAVELGVSQRTIYRDIEALSFAGVPVYAERGPGGGIGLLEPY	-1.73
HMRAEPNSNYSLAIIYKNRYDIAVKKKDAVKEVEYGKMVYEYLNKYVVLSGNKSAKYKKILNYFSSY	-3.02
HMRAFTPSEAQVAHARRVMEAFWQHQREGHGAFALDGKMVDAPIVKAAARVLARAGLQDPNHPIHLA	-0.332
HMRALPFSFANRHGVLIREISDGVAHAVYRIGSSPLGLAEARRFVGMPLMLTPVAREAFDSLLQQTYEQG	-2.39
HMRAPEIEAARSDLDVGQTVQIVRHLHGNQYEVFYRGAQWQAEAVGSSGANDAQTAVITGKNGNILLIQI	0.0986
